From US7414023 (dated 2008)
Bridge positions count the residues as written; N and C are the ends. Ends that are not written are not given here.

T1: cathepsin G (human, UniProt P08311)
T1 chain: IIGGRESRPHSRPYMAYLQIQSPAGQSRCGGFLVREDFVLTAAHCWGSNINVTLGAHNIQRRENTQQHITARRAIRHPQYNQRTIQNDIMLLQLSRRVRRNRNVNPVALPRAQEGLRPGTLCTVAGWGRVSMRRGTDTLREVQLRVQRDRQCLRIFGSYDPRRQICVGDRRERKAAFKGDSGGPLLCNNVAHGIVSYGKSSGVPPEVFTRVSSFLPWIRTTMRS


What was measured:
hK2 = hK2 (human, UniProt P20151); assay: other, IFMA
PSA-API complex = PSA-API complex (human, UniProt P07288); assay: other, IFMA
cathepsin G = molecular target: T1, cathepsin G; assay: other, IFMA
trypsin = assay: other, IFMA
PSA-ACT complex = PSA-ACT complex (human, UniProt P07288); assay: other, IFMA
PSA [1] = molecular target: T2, PSA (human, UniProt P07288); assay: SPR, 30 uM Zn2+
PSA [2] = molecular target: T2, PSA; assay: competition, IFMA with free PSA
PSA [3] = molecular target: T2, PSA; assay: SPR
PSA [4] = molecular target: T2, PSA; assay: SPR, 0 uM Zn2+
PSA [5] = molecular target: T2, PSA; assay: SPR, 1 uM Zn2+
PSA [6] = molecular target: T2, PSA; assay: SPR, 10 uM Zn2+
PSA [7] = molecular target: T2, PSA; assay: other, IFMA

hK2, sequence (P20151 25-261): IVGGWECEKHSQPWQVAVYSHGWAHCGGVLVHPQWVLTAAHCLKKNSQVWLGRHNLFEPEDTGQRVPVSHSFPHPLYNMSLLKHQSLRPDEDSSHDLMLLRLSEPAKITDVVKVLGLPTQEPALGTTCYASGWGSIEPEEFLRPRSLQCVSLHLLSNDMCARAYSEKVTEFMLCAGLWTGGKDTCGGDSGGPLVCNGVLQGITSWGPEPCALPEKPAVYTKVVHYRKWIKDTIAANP

Binder | binding result (hK2) | binding result (PSA-API complex) | binding result (cathepsin G) | binding result (trypsin) | binding result (PSA-ACT complex) | Kd (PSA [1]) | IC50 (PSA [2]) | Kd (PSA [3]) | Kd (PSA [4]) | Kd (PSA [5]) | Kd (PSA [6]) | binding result (PSA [7])
CVAYCIEHHCWTC (disulfide 1-13, 5-10; also: GST fusion, site not given here) [GST-C-4] | no binding | no binding | no binding | no binding | no binding | 860 nM | 0.7 nM | – | – | – | – | –
CVFTSDYAFC (disulfide 1-10 (inferred); also: GST fusion, site not given here) [GST-A-1] | no binding | no binding | no binding | no binding | no binding | 1000 nM | 3.3 nM | 7800 nM | 7800 nM | 2600 nM | 1400 nM | –
CVFAHNYDYLVC (disulfide 1-12 (inferred); also: GST fusion, site not given here) [GST-B-2] | no binding | no binding | no binding | no binding | no binding | 800 nM | 1 nM | 3500 nM | 3500 nM | 3100 nM | 600 nM | –
CLSTCAQSCRISC (also: GST fusion, disulfide pairing not given here) [GST-D-1] | – | – | – | – | – | – | – | – | – | – | – | no binding
